Results on one substance are retold here after article doi:10.1101/2022.09.26.509586.

The target in this experiment is piggyBac transposase residues 1-558 (PB1-558) (cabbage looper moth). Kind of experiment: AUC.

For orientation: stoichiometry N means a count of units in the complex or per binding partner. With “piggyBac transposase residues 1-558 (PB1-558) (domain or fragment)”, the stoichiometry N came to 2.
